Results reported in article PMC4854415, “The Human Sodium-Glucose Cotransporter (hSGLT1) Is a Disulfide-Bridged Homodimer with a Re-Entrant C-Terminal Loop” (PLoS ONE, 2016).

Target: the molecule itself
Assay: SDS-PAGE without reducing agent and western blot; total membrane preparation of oocytes expressing myc-tagged hSGLT1, 7.5 or 10% polyacrylamide gel, absence of β-Mercaptoethanol, detected with α-c-myc

B1: wt myc-tagged human sodium-glucose cotransporter 1 (hSGLT1) (natural protein, UniProt P13866 1-664, looked up)
chain: MDSSTWSPKTTAVTRPVETHELIRNAADISIIVIYFVVVMAVGLWAMFSTNRGTVGGFFLAGRSMVWWPIGASLFASNIGSGHFVGLAGTGAASGIAIGGFEWNALVLVVVLGWLFVPIYIKAGVVTMPEYLRKRFGGQRIQVYLSLLSLLLYIFTKISADIFSGAIFINLALGLNLYLAIFLLLAITALYTITGGLAAVIYTDTLQTVIMLVGSLILTGFAFHEVGGYDAFMEKYMKAIPTIVSDGNTTFQEKCYTPRADSFHIFRDPLTGDLPWPGFIFGMSILTLWYWCTDQVIVQRCLSAKNMSHVKGGCILCGYLKLMPMFIMVMPGMISRILYTEKIACVVPSECEKYCGTKVGCTNIAYPTLVVELMPNGLRGLMLSVMLASLMSSLTSIFNSASTLFTMDIYAKVRKRASEKELMIAGRLFILVLIGISIAWVPIVQSAQSGQLFDYIQSITSYLGPPIAAVFLLAIFWKRVNEPGAFWGLILGLLIGISRMITEFAYGTGSCMEPSNCPTIICGVHYLYFAIILFAISFITIVVISLLTKPIPDVHLYRLCWSLRNSKEERIDLDAEEENIQEGPKETIEIETQVPEKKKGIFRRAYDLFCGLEQHGAPKMTEEEEKAMKMKMTDTSEKPLWRTVLNVNGIILVTVAVFCHAYFA
notes: human sodium-glucose cotransporter 1 (hSGLT1), wild type; Dimer held by a disulfide bridge between the C355 residues of two molecules, by non-reducing western blot; also called wt hSGLT1; wtSGLT1; source: Xenopus laevis oocytes injected with mRNA, total membrane preparation
stoichiometry N: 2
